Columns and labels:
[1] = molecular target: EGFR on Cos7 cells (African green monkey (endogenous in Cos7)); assay: single-molecule diffusional mobility shift assay (smDIMSA); living Cos7 cells treated with EGF and pertuzumab; EGFR bait labelled with Fab-Alexa Fluor 647, tracked before and after the anti-ErbB2 antibody
[2] = molecular target: EGFR on Cos7 cells (African green monkey (endogenous in Cos7)); assay: single-molecule diffusional mobility shift assay (smDIMSA); living Cos7 cells treated with EGF, no pertuzumab (mock); EGFR bait labelled with Fab-Alexa Fluor 647, tracked before and after the anti-ErbB2 antibody
[3] = molecular target: mEos3.2-CD86 (CD86 truncated at R227) (UniProt P42081); assay: single-molecule diffusional mobility shift assay (smDIMSA); homodimer format on living HeLa cells: receptor partially labelled with the Alexa Fluor 647 Fab (20 nM, 15 min) of a monoclonal antibody, tracked before and after 15 min with the same full-length antibody; 37 °C; peak shift averaged from multiple cells

diffusion coefficient shift (EGF-treated cells, with pertuzumab) [1] [%]	diffusion coefficient shift (EGF-treated cells) [2] [%]	peak shift of the diffusion coefficient [3] [%]	Substance
6	12		ErbB2 on Cos7 cells (receptor)
		< 1	mEos3.2-CD86 (CD86 truncated at R227) (from UniProt P42081 24-227) (receptor)
